Test results published in paper PMC8956578, “The inner side of yeast PCNA contributes to genome stability by mediating interactions with Rad18 and the replicative DNA polymerase δ” (Scientific Reports, 2022).

Molecular target: the molecule itself
Experiment: native gel or EMSA; increasing concentrations of purified wild-type and mutant PCNA on a 12% non-denaturing polyacrylamide gel

B1: wild-type PCNA (proliferating cell nuclear antigen), purified (natural protein, yeast, UniProt P15873 1-258, looked up)
chain: MLEAKFEEASLFKRIIDGFKDCVQLVNFQCKEDGIIAQAVDDSRVLLVSLEIGVEAFQEYRCDHPVTLGMDLTSLSKILRCGNNTDTLTLIADNTPDSIILLFEDTKKDRIAEYSLKLMDIDADFLKIEELQYDSTLSLPSSEFSKIVRDLSQLSDSINIMITKETIKFVADGDIGSGSVIIKPFVDMEHPETSIKLEMDQPVDLTFGAKYLLDIIKGSSLSDRVGIRLSSEAPALFQFDLKSGFLQFFLAPKFNDEE
notes: PCNA (POL30), yeast; open reading frame cloned in N-terminal fusion with GST; also called Pol30; source: protease deficient yeast strain BJ5464, galactose inducible promoter (pBJ842 backbone), purified
stoichiometry N: 3
